Experiments:
PRO256 polypeptide = molecular target: T1, PRO256 polypeptide
T1 chain: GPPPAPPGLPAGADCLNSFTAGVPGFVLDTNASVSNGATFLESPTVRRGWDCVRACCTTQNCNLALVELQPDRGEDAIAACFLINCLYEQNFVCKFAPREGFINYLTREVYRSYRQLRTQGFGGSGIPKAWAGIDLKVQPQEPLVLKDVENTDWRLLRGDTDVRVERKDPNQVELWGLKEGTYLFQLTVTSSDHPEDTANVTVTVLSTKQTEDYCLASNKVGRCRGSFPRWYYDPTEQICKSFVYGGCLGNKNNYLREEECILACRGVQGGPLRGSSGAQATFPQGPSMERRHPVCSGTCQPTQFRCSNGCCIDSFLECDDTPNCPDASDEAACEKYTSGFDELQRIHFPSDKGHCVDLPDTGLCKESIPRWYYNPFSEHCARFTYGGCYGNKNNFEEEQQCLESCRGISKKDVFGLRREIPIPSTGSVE

[1] = molecular target: single-chain hepatocyte growth factor (scHGF)
single-chain hepatocyte growth factor (scHGF), sequence (P14210 whole entry): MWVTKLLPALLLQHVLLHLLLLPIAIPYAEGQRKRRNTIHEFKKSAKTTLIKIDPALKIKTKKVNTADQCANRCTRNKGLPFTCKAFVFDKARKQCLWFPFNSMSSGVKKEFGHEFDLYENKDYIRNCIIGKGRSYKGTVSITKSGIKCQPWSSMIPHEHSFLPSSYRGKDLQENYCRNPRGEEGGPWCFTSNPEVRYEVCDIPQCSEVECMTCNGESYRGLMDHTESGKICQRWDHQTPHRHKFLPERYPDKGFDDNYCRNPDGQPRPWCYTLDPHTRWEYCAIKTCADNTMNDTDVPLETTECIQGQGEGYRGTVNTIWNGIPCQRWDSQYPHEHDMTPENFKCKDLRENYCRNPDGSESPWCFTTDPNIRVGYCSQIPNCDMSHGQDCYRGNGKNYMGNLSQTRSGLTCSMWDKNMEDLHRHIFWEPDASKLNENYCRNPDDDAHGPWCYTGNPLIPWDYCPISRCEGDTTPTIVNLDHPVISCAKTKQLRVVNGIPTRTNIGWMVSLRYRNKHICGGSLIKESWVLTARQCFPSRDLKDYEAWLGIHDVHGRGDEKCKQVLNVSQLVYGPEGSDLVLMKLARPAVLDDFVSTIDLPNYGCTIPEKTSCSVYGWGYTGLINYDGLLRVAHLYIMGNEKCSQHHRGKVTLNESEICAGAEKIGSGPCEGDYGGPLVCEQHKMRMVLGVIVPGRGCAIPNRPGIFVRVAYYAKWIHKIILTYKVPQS

B1: hepatocyte growth factor activator (as present in human serum) (protein)
chain: VQLSPDLLATLPEPASPGRQACGRRHKKRTFLRPRIIGGSSSLPGSHPWLAAIYIGDSFCAGSLVHTCWVVSAAHCFSHSPPRDSVSVVLGQHFFNRTTDVTQTFGIEKYIPYTLYSVFNPSDHDLVLIRLKKKGDRCATRSQFVQPICLPEPGSTFPAGHKCQIAGWGHLDENVSGYSSSLREALVPLVADHKCSSPEVYGADISPNMLCAGYFDCKSDACQGDSGGPLACEKNGVAYLYGIISWGDGCGRLHKPGVYTRVANYVDWINDRIRPPRRLVAPS
- human serum (10%)-mediated conversion of ^125I-scHGF into its two chain form, SDS-PAGE/autoradiography, PRO256 at 1 µM (PRO256 polypeptide): In the presence of the inhibitor PRO256 (at time intervals 0, 0.5 hr, 1 hr, 2 hr, and 4 hr), ^125I-sc-HGF is not converted two chain form as indicated by the top heavy band on the gel.

B2: human factor XIIa (Haematologic Technologies) (protein)
chain: IPPWEAPKEHKYKAEEHTVVLTVTGEPCHFPFQYHRQLYHKCTHKGRPGPQPWCATTPNFDQDQRWGYCLEPKKVKDHCSKHSPCQKGGTCVNMPSGPHCLCPQHLTGNHCQKEKCFEPQLLRFFHKNEIWYRTEQAAVARCQCKGPDAHCQRLASQACRTNPCLHGGRCLEVEGHRLCHCPVGYTGAFCDVDTKASCYDGRGLSYRGLARTTLSGAPCQPWASEATYRNVTAEQARNWGLGGHAFCRNPDNDIRPWCFVLNRDRLSWEYCDLAQCQTPTQAAPPTPVSPRLHVPLMPAQPAPPKPQPTTRTPPQSQTPGALPAKREQPPSLTRNGPLSCGQRLRKSLSSMTRVVGGLVALRGAHPYIAALYWGHSFCAGSLIAPCWVLTAAHCLQDRPAPEDLTVVLGQERRNHSCEPCQTLAVRSYRLHEAFSPVSYQHDLALLRLQEDADGSCALLSPYVQPVCLPSGAARPSETTLCQVAGWGHQFEGAEEYASFLQEAQVPFLSLERCSAPDVHGSSILPGMLCAGFLEGGTDACQGDSGGPLVCEDQAAERRLTLQGIISWGSGCGDRNKPGVYTDVAYYLAWIREHTVS
- factor XIIa (40 nM) conversion of ^125I-scHGF into its two chain form, SDS-PAGE/autoradiography, with or without PRO256 (PRO256 polypeptide): In the presence or absence of PRO256, factor XIIa converts ^125I-scHGF into its two chain form, thereby indicating lack of inhibition by PRO256.
- conversion of ^125I-scHGF into its two chain form, factor XIIa 40 nM, SDS-PAGE/autoradiography [1]: factor XIIa converts ^125I-scHGF into its two chain form
- conversion of scHGF into its two chain form, factor XIIa 20 nM, SDS-PAGE with autoradiography or Coomassie staining [1]: Both labelled and unlabelled HGF were converted identically, suggesting that the iodination of scHGF did not impair processing by its activators, such as factor XIIa.

Source: patent publication US20020123091
